This passage reports percent of AAT in the complex, Western blot densitometry of bound AAT (C3-coated beads vs control beads) and fluorescence intensity of binding (h-AAT vs r-AAT) results from publication PMC7231451.

The target of assay [1] is associated or linker proteins (plasma proteins of the approximately 320 kDa complex). In words: SEC.
The target in assay [2] is Complement C3 (purified, native) (UniProt P01024). As to the kind of experiment: pull-down.
Assay [3] has the same target. In words: flow cytometry on coated beads. (In flow cytometry, cells or beads pass a laser one at a time.)

On to “Alpha-1 antitrypsin (from UniProt P01009 25-418) (natural protein)”, for which, in assay [1], the percent of AAT in the complex turned out to be 13%.
Take “plasma purified human AAT (natural protein)”: the Western blot densitometry of bound AAT (C3-coated beads vs control beads) in assay [2] came to 2.7 AU. The substance also showed a fluorescence intensity of binding (h-AAT vs r-AAT) in assay [3] of 1.5 AU.
